B1: Phosphatidylinositol 3,4,5-trisphosphate 3-phosphatase and dual-specificity protein phosphatase daf-18 (Caenorhabditis elegans), G5EE01 (parent)
chain: MVTPPPDVPSTSTRSMARDLQENPNRQPGEPRVSEPYHNSIVERIRHIFRTAVSSNRCRTEYQNIDLDCAYITDRIIAIGYPATGIEANFRNSKVQTQQFLTRRHGKGNVKVFNLRGGYYYDADNFDGNVICFDMTDHHPPSLELMAPFCREAKEWLEADDKHVIAVHCKAGKGRTGVMICALLIYINFYPSPRQILDYYSIIRTKNNKGVTIPSQRRYIYYYHKLRERELNYLPLRMQLIGVYVERPPKTWGGGSKIKVEVGNGSTILFKPDPLIISKSNHQRERATWLNNCDTPNEFDTGEQKYHGFVSKRAYCFMVPEDAPVFVEGDVRIDIREIGFLKKFSDGKIGHVWFNTMFACDGGLNGGHFEYVDKTQPYIGDDTSIGRKNGMRRNETPMRKIDPETGNEFESPWQIVNPPGLEKHITEEQAMENYTNYGMIPPRYTISKILHEKHEKGIVKDDYNDRKLPMGDKSYTESGKSGDIRGVGGPFEIPYKAEEHVLTFPVYEMDRALKSKDLNNGMKLHVVLRCVDTRDSKMMEKSEVFGNLAFHNESTRRLQALTQMNPKWRPEPCAFGSKGAEMHYPPSVRYSSNDGKYNGACSENLVSDFFEHRNIAVLNRYCRYFYKQRSTSRSRYPRKFRYCPLIKKHFYIPADTDDVDENGQPFFHSPEHYIKEQEKIDAEKAAKGIENTGPSTSGSSAPGTIKKTEASQSDKVKPATEDELPPARLPDNVRRFPVVGVDFENPEEESCEHKTVESIAGFEPLEHLFHESYHPNTAGNMLRQDYHTDSEVKIAEQEAKAFVDQLLNGQGVLQEFMKQFKVPSDNSFADYVTGQAEVFKAQIALLEQSEDFQRVQANAEEVDLEHTLGEAFERFGHVVEESNGSSKNPKALKTREQMVKETGKDTQKTRNHVLLHLEANHRVQIERRETCPELHPEDKIPRIAHFSENSFSDSNFDQAIYL
partner: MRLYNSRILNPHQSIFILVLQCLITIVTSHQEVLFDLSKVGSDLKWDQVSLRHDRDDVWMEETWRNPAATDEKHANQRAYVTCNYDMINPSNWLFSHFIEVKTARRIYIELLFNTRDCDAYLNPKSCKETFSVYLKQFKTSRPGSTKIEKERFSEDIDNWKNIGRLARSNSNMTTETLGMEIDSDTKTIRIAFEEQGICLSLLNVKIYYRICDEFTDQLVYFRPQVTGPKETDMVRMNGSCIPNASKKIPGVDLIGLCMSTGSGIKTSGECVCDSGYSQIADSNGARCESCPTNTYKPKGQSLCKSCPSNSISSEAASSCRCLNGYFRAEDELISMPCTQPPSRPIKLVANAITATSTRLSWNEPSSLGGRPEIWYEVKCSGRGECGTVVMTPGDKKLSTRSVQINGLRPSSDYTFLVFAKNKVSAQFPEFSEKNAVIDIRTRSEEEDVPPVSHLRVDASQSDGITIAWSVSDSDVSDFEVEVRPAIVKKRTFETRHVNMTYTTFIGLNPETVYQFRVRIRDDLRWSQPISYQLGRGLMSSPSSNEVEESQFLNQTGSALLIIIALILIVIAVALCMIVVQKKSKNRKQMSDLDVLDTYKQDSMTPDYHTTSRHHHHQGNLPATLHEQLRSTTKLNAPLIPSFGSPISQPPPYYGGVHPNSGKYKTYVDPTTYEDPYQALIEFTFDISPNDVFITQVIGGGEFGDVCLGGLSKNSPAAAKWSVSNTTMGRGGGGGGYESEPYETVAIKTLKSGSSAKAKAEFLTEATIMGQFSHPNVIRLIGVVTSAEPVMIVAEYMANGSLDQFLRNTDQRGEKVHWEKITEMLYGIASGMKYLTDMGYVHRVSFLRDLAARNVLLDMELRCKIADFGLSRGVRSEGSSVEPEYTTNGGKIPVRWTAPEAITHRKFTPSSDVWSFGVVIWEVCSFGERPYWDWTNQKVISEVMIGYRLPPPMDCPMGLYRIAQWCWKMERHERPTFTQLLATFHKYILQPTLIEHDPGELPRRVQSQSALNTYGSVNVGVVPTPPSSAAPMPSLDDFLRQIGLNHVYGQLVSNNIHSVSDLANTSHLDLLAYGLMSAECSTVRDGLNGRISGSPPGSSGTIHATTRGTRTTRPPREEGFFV

Variants of: B1
Conditions: with vab1_caeel vab-1, O61460
D137A was tested, and the “effect of a mutation on the interaction” value was “increasing interaction”.

From IntAct's records for PubMed 19853560
